# Measured values published in patent US20120128639A1, “In Vitro Production Of Oligodendrocytes From Human Umbilical Cord Stem Cells” (UNIVERSITY OF CENTRAL FLORIDA RESEARCH FOUNDATION, INC., priority 2009, published 2012).
# System: human multipotent progenitor cells (MLPCs) from umbilical cord
# Conditions: 3D environment; presence or absence in medium
# Procedure: MLPCs were seeded on DETA-coated glass coverslips (18 mm) at a density of 4×10^3 cells/cm^2 in growth medium. After 3 days, at about 60% confluency, cells were incubated for 24 hours in pre-induction medium, consisting of DMEM, 15% FBS. FGF-2, EGF (20 ng/ml each, R & D Systems, Minneapolis, Minn.) and PDGF-AA (10 ng/ml, Chemicon International, Temecula, Calif.). To initiate differentiation, the pre-induction medium was removed, the cells were washed 2× with Hanks' balanced salts solution (Gibco BRL) and transferred to serum-free differentiation medium.
# Construction of 3D Environment MLPCs were plated on DETA-coated glass coverslips (18 mm) in growth medium. At about 60% confluence, growth medium was replaced with pre-induction medium. […]
# Phase-contrast images were taken with a commercial Nikon Coolpix 990 camera using the Zeiss Axiovert S100 microscope. Pictures were analyzed using Scion Image Software (Scion Corp., Frederick, Md.).
# The morphological and immunocytochemical quantification was performed on undifferentiated stem cells or cells during various differentiation stages. […] All the marker-positive cells were counted, as well as the total number of cells in these views. At least three coverslips in each group were quantified and data were expressed as average±standard deviation (SD). Statistical differences between different experimental groups were analyzed by Student's t-test.
molecule,measurement,value
"EGF: growth factor in pre-induction and differentiation medium (protein, UniProt P01133 23-1207, looked up, Pro-epidermal growth factor) Pro-epidermal growth factor: PQHWSCPEGTLAGNGNSTCVGPAPFLIFSHGNSIFRIDTEGTNYEQLVVDAGVSVIMDFHYNEKRIYWVDLERQLLQRVFLNGSRQERVCNIEKNVSGMAINWINEEVIWSNQQEGIITVTDMKGNNSHILLSALKYPANVAVDPVERFIFWSSEVAGSLYRADLDGVGVKALLETSEKITAVSLDVLDKRLFWIQYNREGSNSLICSCDYDGGSVHISKHPTQHNLFAMSLFGDRIFYSTWKMKTIWIANKHTGKDMVRINLHSSFVPLGELKVVHPLAQPKAEDDTWEPEQKLCKLRKGNCSSTVCGQDLQSHLCMCAEGYALSRDRKYCEDVNECAFWNHGCTLGCKNTPGSYYCTCPVGFVLLPDGKRCHQLVSCPRNVSECSHDCVLTSEGPLCFCPEGSVLERDGKTCSGCSSPDNGGCSQLCVPLSPVSWECDCFPGYDLQLDEKSCAASGPQPFLLFANSQDIRHMHFDGTDYGTLLSQQMGMVYALDHDPVENKIYFAHTALKWIERANMDGSQRERLIEEGVDVPEGLAVDWIGRRFYWTDRGKSLIGRSDLNGKRSKIITKENISQPRGIAVHPMAKRLFWTDTGINPRIESSSLQGLGRLVIASSDLIWPSGITIDFLTDKLYWCDAKQSVIEMANLDGSKRRRLTQNDVGHPFAVAVFEDYVWFSDWAMPSVMRVNKRTGKDRVRLQGSMLKPSSLVVVHPLAKPGADPCLYQNGGCEHICKKRLGTAWCSCREGFMKASDGKTCLALDGHQLLAGGEVDLKNQVTPLDILSKTRVSEDNITESQHMLVAEIMVSDQDDCAPVGCSMYARCISEGEDATCQCLKGFAGDGKLCSDIDECEMGVPVCPPASSKCINTEGGYVCRCSEGYQGDGIHCLDIDECQLGEHSCGENASCTNTEGGYTCMCAGRLSEPGLICPDSTPPPHLREDDHHYSVRNSDSECPLSHDGYCLHDGVCMYIEALDKYACNCVVGYIGERCQYRDLKWWELRHAGHGQQQKVIVVAVCVVVLVMLLLLSLWGAHYYRTQKLLSKNPKNPYEESSRDVRSRRPADTEDGMSSCPQPWFVVIKEHQDLKNGGQPVAGEDGQAADGSMQPTSWRQEPQLCGMGTEQGCWIPVSSDKGSCPQVMERSFHMPSYGTQTLEGGVEKPHSLLSANPLWQQRALDPPHQMELTQ",need of the growth factor for process formation,not essential
